Patent publication US20200123227A1, “INTERFERON PRODRUG FOR THE TREATMENT OF CANCER” (The Board of Regents of the University of Texas System, published 2020)

B1: Mouse IFNAR1-ECD (receptor)
chain: ENLKPPENIDVYIIDDNYTLKWSSHGESMGSVTFSAEYRTKDEAKWLKVPECQHTTTTKCEFSLLDTNVYIKTQFRVRAEEGNSTSSWNEVDPFIPFYTAHMSPPEVRLEAEDKAILVHISPPGQDGNMWALEKPSFSYTIRIWQKSSSDKKTINSTYYVEKIPELLPETTYCLEVKAIHPSLKKHSNYSTVQCISTTVANKMPVPGNLQVDAQGKSYVLKWDYIASADVLFRAQWLPGYSKSSSGSRSDKWKPIPTCANVQTTHCVFSQDTVYTGTFFLHVQASEGNHTSFWSEEKFIDSQKHILPPPPVITVTAMSDTLLVYVNCQDSTCDGLNYEIIFWENTSNTKISMEKDGPEFTLKNLQPLTVYCVQARVLFRALLNKTSNFSEKLCEKTRPGSFST
B2: Mouse IFNAR2-ECD (receptor)
chain: SLETITPSAFDGYPDEPCTINITIRNSRLILSWELENKSGPPANYTLWYTVMSKDENLTKVKNCSDTTKSSCDVTDKWLEGMESYVVAIVIVHRGDLTVCRCSDYIVPANAPLEPPEFEIVGFTDHINVTMEFPPVTSKIIQEKMKTTPFVIKEQIGDSVRKKHEPKVNNVTGNFTFVLRDLLPKTNYCVSLYFDDDPAIKSPLKCIVLQPGQESGLSESA

How the values were obtained:
[1] = molecular target: human R2-SUB (human) (UniProt P01563)
[2] = molecular target: cell surface IFNAR1/IFNAR2 heterodimer (RAW-Lucia ISG cells) (Mus musculus (Mouse)) (UniProt P33896)
[3] = molecular target: IFNa4-Fc (human); assay: cell-based or functional assay

Molecule	IFN activity, luciferase reporter assay in RAW-Lucia ISG cells [2] [fold]	IFN activity, luciferase reporter assay in RAW-Lucia ISG cells [3] [fold]	also measured
rmMMP-9 (from UniProt P41245) (enzyme)			cleavage by rmMMP-9 at 37 C for 0, 0.5, 2 or 6 hours, digests separated on a stain-free gel [1]: 100%
R2-IFNa4-Fc (from UniProt P07351) (Fc fusion)	> 125		
R1-IFNa4-Fc (from UniProt P07351) (Fc fusion)	< 125		
B1		≥ 125	
B2		≥ 125	
